Test results reported in article PMC2654577.
Like-named read-outs stand apart in the source and are kept apart here.

What was measured:
Test in all cases: enzyme inhibition kinetics
[1] = target: factor XIa catalytic domain K175A (human)
[2] = target: factor XIa catalytic domain R171A (human) (UniProt P03951)
[3] = target: factor XIa catalytic domain K170A (human) (UniProt P03951)
[4] = target: factor XIa catalytic domain K179A (human)
[5] = target: wild type recombinant factor XIa, full length (human)
[6] = target: factor XIa catalytic domain K175A (human); remark: listed apart in the source
[7] = target: factor XIa catalytic domain R171A (human) (UniProt P03951); remark: listed apart in the source
[8] = target: full-length factor XIa with a Gln substitution for Arg-37 (human)
[9] = target: factor XIa catalytic domain K170A (human) (UniProt P03951); remark: listed apart in the source
[10] = target: factor XIa catalytic domain K179A (human); remark: listed apart in the source
[11] = target: full-length factor XIa autolysis loop variant fXIa-144-149A (human)
[12] = target: factor XIa catalytic domain R173A (human) (UniProt P03951)
[13] = target: factor XIa catalytic domain K175A (human); remark: listed apart in the source
[14] = target: factor XIa catalytic domain R171A (human) (UniProt P03951); remark: listed apart in the source
[15] = target: full-length factor XIa with a Gln substitution for Arg-37 (human); remark: listed apart in the source
[16] = target: factor XIa catalytic domain K170A (human) (UniProt P03951); remark: listed apart in the source
[17] = target: factor XIa catalytic domain K179A (human); remark: listed apart in the source
[18] = target: factor XIa catalytic domain R173A (human) (UniProt P03951); remark: listed apart in the source

k2 (second-order inhibition rate constant) [1]: 17000 M⁻¹ s⁻¹
k2 (second-order inhibition rate constant) [2]: 18000 M⁻¹ s⁻¹
k2 (second-order inhibition rate constant) [3]: 12000 M⁻¹ s⁻¹
k2 (second-order inhibition rate constant) [4]: 50000 M⁻¹ s⁻¹
k2 (second-order inhibition rate constant) [5]: 223000 M⁻¹ s⁻¹
k2 (second-order inhibition rate constant) [6]: 180 M⁻¹ s⁻¹
k2 (second-order inhibition rate constant) [7]: 490 M⁻¹ s⁻¹
k2 (second-order inhibition rate constant) [8]: 1550 M⁻¹ s⁻¹
k2 (second-order inhibition rate constant) [9]: 230 M⁻¹ s⁻¹
k2 (second-order inhibition rate constant) [10]: 250 M⁻¹ s⁻¹
k2 (second-order inhibition rate constant), maximal [11]: 200000 M⁻¹ s⁻¹
k2 (second-order inhibition rate constant) [12]: 210 M⁻¹ s⁻¹
k2 (second-order inhibition rate constant) [13]: 550 M⁻¹ s⁻¹
k2 (second-order inhibition rate constant) [14]: 1200 M⁻¹ s⁻¹
k2 (second-order inhibition rate constant) [15]: 2620 M⁻¹ s⁻¹
k2 (second-order inhibition rate constant) [16]: 610 M⁻¹ s⁻¹
k2 (second-order inhibition rate constant) [17]: 680 M⁻¹ s⁻¹
k2 (second-order inhibition rate constant) [18]: 560 M⁻¹ s⁻¹
Substance: antithrombin (from UniProt P01008 33-464) (natural protein)
